Results from US20090175881A1 (SCHERING, published 2009).
Several values for one entry are separate records, joined by “and”; a condition that tells them apart may be missing. Identical values can stand only once.

B1: rat 23E12 (antibody, V domains shown)
VH: QVQLKESGPGLVQPSQTLSLTCTVFGFSLTNNGVTWVRQPPGKGLEWIAEVSSGGSTDYNSALKSRLSISRDTSKSQVFLRMNSLQTEDTAIYFCARQEVFTGLLDYWGQGVMVTVSS
VL: DIQMTQSPASLSASLGETVTIQCQASEDIYSGLAWYHQKPGKSPQLLILGASRLHDGVPSRFSGSGSGIEYSLKINNMQTEDEGIYFCQQGLKYPPTFGGGTKLELKR
notes: Parental rat monoclonal antibody (hybridoma PTA-7740)
B2: humanized 16C10 wt (antibody, human IgG1, kappa, V domains shown)
VH: QVQLQESGPGLVKPSETLSLTCTVSGFSLPSHSVSWIRQPPGKGLEWIGIIWNNGGTDYNSAFKSRVTISVDTSKNQFSLKLSSVTAADTAVYYCARNMYITDYYYENYFMDAWGQGTLVTVSS
VL: DIVMTQSPLSLPVTPGEPASISCKSSQSLLFSENQKNYLAWYLQKPGQSPQLLIYWTSTRQSGVPDRFSGSGSGTDFTLKISRVEAEDVGVYYCQQSYYTPYTFGQGTKVEIKR
notes: Humanized antibody with the parental rat CDRs; Human IgG1/kappa; also called hu 16C10 wt; hu16C10 (wt)
B3: humanized 16C10 (VH N54Q/M96A) (antibody, human IgG1, kappa, V domains shown)
VH: QVQLQESGPGLVKPSETLSLTCTVSGFSLPSHSVSWIRQPPGKGLEWIGIIWNQGGTDYNSAFKSRVTISVDTSKNQFSLKLSSVTAADTAVYYCARNAYITDYYYENYFMDAWGQGTLVTVSS
VL: DIVMTQSPLSLPVTPGEPASISCKSSQSLLFSENQKNYLAWYLQKPGQSPQLLIYWTSTRQSGVPDRFSGSGSGTDFTLKISRVEAEDVGVYYCQQSYYTPYTFGQGTKVEIKR
notes: Human IgG1/kappa; also called hu 16C10; hu16C10
B4: hu 16C10 VH N54Q/M96A/M100hF (antibody, human IgG1, kappa, V domains shown)
VH: QVQLQESGPGLVKPSETLSLTCTVSGFSLPSHSVSWIRQPPGKGLEWIGIIWNQGGTDYNSAFKSRVTISVDTSKNQFSLKLSSVTAADTAVYYCARNAYITDYYYENYFFDAWGQGTLVTVSS
VL: DIVMTQSPLSLPVTPGEPASISCKSSQSLLFSENQKNYLAWYLQKPGQSPQLLIYWTSTRQSGVPDRFSGSGSGTDFTLKISRVEAEDVGVYYCQQSYYTPYTFGQGTKVEIKR
notes: Human IgG1/kappa; also called hu 16C10 VH 54Q/M96A/M100hF; hu16C10 (N54Q/M96A/M100hF)
B5: chimeric 16C10 (antibody, human IgG1, kappa, V domains shown)
VH: QVELRESGPGLVQPSQTLSLTCTVSGFSLPSHSVSWIRQPPGKGLEWMGIIWNNGGTDYNSAFKSRLTISRDTSKSQVFLKMNSLQTEDTAMYFCARNMYITDYYYENYFMDAWGQGASVTVSS
VL: DIVMTQSPSSLAVSIGETVTLNCKSSQSLLFSENQKNYLAWYQHKSGQSPKLLVYWTSTRQSGVPDRFMGSGSGTDFTLTISSVQAEDLAIYYCQQSYYTPYTFGAGTKLELKR
notes: also called chimeric 16C10C
B6: rat 1D10 (antibody, V domains shown)
VH: QVQLKESGPGLVQPSQTLSLTCTVSGFSLTNYYVHWVRQPPGKGLEWMGGVWNDGDTSYNSVLRSRLSITRDTSKSQVLLKMSSLQTEDTATYYCAREGREGFVGYYVMDAWGPGASVTVSS
VL: DIQMTQSPSFLSASVGERVTLSCKASQNINKYLDWFQQKLGEAPKLLIYNADNLHTGIPSRFSGSGSFSDFILTISSLQPEDDATYFCLQRESWPYTFGAGTKLELKR
notes: Parental rat monoclonal antibody; also called ID10; anti-IL-17A antibody 1D10

Columns and labels:
rhIL-17A [1] = molecular target: T1, rhIL-17A (human, UniProt Q16552 24-155); experiment: cell-based or functional assay
T1 sequence: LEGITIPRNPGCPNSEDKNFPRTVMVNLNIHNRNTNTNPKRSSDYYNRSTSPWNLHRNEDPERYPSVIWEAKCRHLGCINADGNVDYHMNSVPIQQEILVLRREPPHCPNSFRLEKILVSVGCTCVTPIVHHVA

cynomolgus monkey IL-17A [2] = molecular target: T2, cynomolgus monkey IL-17A (cynomolgus monkey, UniProt A0A2K5TTB0 24-155); experiment: cell-based or functional assay
T2 sequence: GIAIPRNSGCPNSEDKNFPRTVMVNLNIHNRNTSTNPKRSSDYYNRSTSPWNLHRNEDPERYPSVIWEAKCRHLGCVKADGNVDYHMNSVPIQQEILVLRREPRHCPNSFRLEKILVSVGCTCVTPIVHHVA

rhIL-17A [3] = molecular target: T1, rhIL-17A; experiment: cell-based or functional assay; remark: listed apart in the source
FLAG-huIL-17A [4] = molecular target: T3, FLAG-huIL-17A (human, UniProt Q16552 24-155); experiment: KinExA, solution equilibrium
T3 construct: also called FLAG-huL-17A; FLAG-IL-17A
T3 sequence: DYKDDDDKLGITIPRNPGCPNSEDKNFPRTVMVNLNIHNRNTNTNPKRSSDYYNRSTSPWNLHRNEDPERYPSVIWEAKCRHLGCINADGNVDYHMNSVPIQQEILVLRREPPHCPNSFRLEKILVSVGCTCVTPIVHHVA
Experimental: (§1) The equilibrium dissociation constants (Kd) for anti human IL-17A antibodies were determined using the KinExA 3000 instrument (Sapidyne Instruments Inc., Boise, Id., USA). KinExA uses the principle of the Kinetic Exclusion Assay method based on measuring the concentration of uncomplexed antibody in a mixture of antibody, antigen and antibody-antigen complex. […] The concentration of free antibody is measured by exposing the mixture to a solid-phase immobilized antigen for a very brief period of time. l practice, this is accomplished by flowing the solution phase antigen-antibody mixture past antigen-coated particles trapped in a flow cell. Data generated by the instrument are analyzed using custom software.
(§2) IL-17A was derived from either human (“hu”), cynomolgus monkey (“cyno”), or mouse (“mu”). IL-17A from the same species was used in both the immobilized and solution phases for each KinExA determination. Poly(methyl-methacrylate) (PMMA) particles (98 micron) were coated with human, cyno or mouse IL-17A according to Sapidyne “Protocol for coating PMMA particles with biotinylated ligands having short or nonexistent linker arms.” All experimental procedures were done according to the KinExA 3000 manual. All runs were done in duplicate.
(§3) Two-fold serial dilutions of the antigen were prepared and mixed with the antibody at constant concentration. The mixture was incubated for 2 hours at 25° C. to equilibrate.

cynomolgus monkey IL-17A [5] = molecular target: T2, cynomolgus monkey IL-17A; experiment: KinExA, solution equilibrium
Experimental: as §1, §2, §3

mouse IL-17A [6] = molecular target: T4, mouse IL-17A (mouse, UniProt Q62386 26-158, limits assumed); experiment: KinExA, solution equilibrium
T4 construct: also called mu IL-17A; mu IL-17
T4 sequence (looked up): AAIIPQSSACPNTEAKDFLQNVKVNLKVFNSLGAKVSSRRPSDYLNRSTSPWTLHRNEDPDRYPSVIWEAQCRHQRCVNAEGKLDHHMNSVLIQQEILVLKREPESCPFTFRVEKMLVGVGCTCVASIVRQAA
Experimental: as §1, §2, §3

cynomolgus monkey IL-17A [7] = molecular target: T2, cynomolgus monkey IL-17A; experiment: ECL (Origen); area under the curve
Text: (§4) Origen electrochemiluminescence technology, developed by IGEN, Inc. (Gaithersburg, Md., USA), and was employed to measure the binding of rat anti-human IL-17A antibodies (and one chimeric antibody) to FLAG-huL-17A. […] Electrochemiluminescence technology uses a stable ruthenium metal chelate (Ori-TAG) which, in the presence of tripropylamine (TPA), generates electrochemiluminescence upon voltage application. Paramagnetic beads, microns in diameter, act as the solid phase and facilitate rapid assay kinetics. The bead/complex is channeled through a flow cell and captured at an electrode by magnetic application. Voltage is applied and resulting electrochemiluminescence is measured.
(§5) ECL assays were performed as follows. Three-fold serial dilutions of anti-human IL-17A mAbs in 50 μl of the assay buffer were made in a 96-well microtiter plate to give 1-3 μg/ml final concentration in the first well. […] Finally 50 μl of Origen Streptavidin-Dynabeads at 0.1 mg/ml was added to each well. […] GraphPad Prism software (GraphPad Software, San Diego, Calif., USA) was used to plot the data and calculate area under the curve, which is a rough measure of binding.

mouse IL-17A [8] = molecular target: T4, mouse IL-17A; experiment: ECL (Origen); area under the curve
Text: as §4, §5

FLAG-huIL-17A [9] = molecular target: T3, FLAG-huIL-17A; experiment: ECL (Origen), antibody titrated against biotinylated antigen; area under the curve
Text: as §4, §5

rhIL-17A [10] = molecular target: T1, rhIL-17A; experiment: cell-based or functional assay; remark: listed apart in the source
rhIL-17A [11] = molecular target: T1, rhIL-17A; experiment: cell-based or functional assay; remark: listed apart in the source
rhIL-17A [12] = molecular target: T1, rhIL-17A; experiment: KinExA, solution equilibrium
Experimental: as §1, §2, §3

rhIL-17A [13] = molecular target: T1, rhIL-17A; experiment: indirect ELISA, rhIL-17A coated on plate
Experimental: Binding of anti-human-IL-17A monoclonal antibodies to rhIL-17A is assessed using an indirect enzyme-linked immunosorbent assay (ELISA). Briefly, a fixed concentration of rhIL-17A is bound directly to the wells of a microtiter plate. The monoclonal anti-IL-17A to be assayed is then is added to the rhIL-17A coated plate, where the antibody is captured and quantitated.
A 96-well U-bottom MaxiSorp plate is coated with 50 μl/well of rhIL-17A (0.5 μg/ml) in carbonate coating buffer (the “assay plate”). Carbonate coating buffer is 2.9 g/L NaHFCO₃, 1.6 g/L Na₂CO₃, pH 9.4. Plates are incubated covered at 4° C. overnight. Monoclonal antibodies to be screened are serially diluted in duplicate across the rows of a V-bottom plate such that the final volume is 60 μl/well (the “serial dilution plate”). The assay plate is washed three times with PBS-Tween in a plate washer (SkanWasher, Molecular Devices, Sunnyvale, Calif., USA) and blotted dry. PBS-Tween is obtained by adding 0.5 ml/L Tween 20 to 1×PBS. Fifty μl from each well of the serial dilution plate is transferred to the assay plate and incubated at 25° C. for one hour. Secondary antibodies are diluted 1/2000 in diluent (PBS-BSA-Tween, which is PBS-Tween with 1 g/L BSA). The secondary antibody for rat monoclonal antibodies is goat anti-rat IgG (H+L)—HRP (Jackson ImmunoResearch Laboratories, Inc., West Grove, Pa., USA). The secondary antibody for chimeric and humanized monoclonal antibodies is F(ab′)₂ goat anti-human IgG Fcγ—HRP (Jackson ImmunoResearch Laboratories, Inc.). The assay plate is washed as before. Diluted secondary antibodies (100 μl/well) are added to the appropriate wells in the assay plate, and the plate is incubated at 25° C. for 45 minutes. The assay plate is washed as before.

rhIL-17A [14] = molecular target: T1, rhIL-17A; experiment: sandwich ELISA, IL-17A captured on rat 12E6, antibody titrated
Experimental: (§6) Binding of anti-human-IL-17A monoclonal antibodies to rhIL-17A is assessed using an ELISA as follows. Briefly, a capture antibody is bound to the wells of a microtiter plate, after which a fixed concentration of rhIL-17A is added. The monoclonal anti-IL-17A to be assayed is then titrated versus the bound rhIL-17A on the plate to determine the concentration of antibody needed to achieve half-maximal binding. A more detailed protocol follows.
(§7) A 96-well microtiter plate is coated with 100 μl/well of capture antibody (rat anti-hIL-17A 12E6, 0.5 μg/ml) in carbonate coating buffer pH 9.5 (the “assay plate”). Plates are incubated covered at 4° C. for 24 to 48 hours. The assay plate is washed three times in a plate washer (SkanWasher, Molecular Devices, Sunnyvale, Calif., USA) and blotted dry. The plate is then blocked with 200 μl/well of ELISA assay buffer (20 mM Tris-HCl, 0.15 M NaCl, pH7.4, 0.5% BSA, 0.05% Tween-20, SM EDTA) for one hour at 25° C. on an orbital shaker. The plate is washed, and 100 μl/well of either adenovirus-derived rhIL-17A or E. coli-derived human IL-17 (IL-17A) (R&D Systems, Minneapolis, Minn., USA) (0.1 g/ml) is added in ELISA assay buffer and incubated for 2 hours at 25° C. on an orbital shaker. […] Plates are incubated for 1.5 hours at 25° C. on an orbital shaker. Plates are washed and 100 μl/well secondary antibody (F(ab′)₂ goat anti-human kappa light chain—HRP, 1:20,000 dilution, BioSource, Carlsbad, Calif., USA) is added, except for assay blank wells. Plates are washed twice (i.e. two cycles of 3 washes per cycle) with plate rotation between cycles. TMB substrate (Kirkegaard & Perry Laboratories, Gaithersburg, Md., USA) is added at 100 μl/well and incubated 3-5 minutes on an orbital shaker. Stop solution is added (100 μl/well) and the plate is read for absorbance at 450-570 um on a plate reader (Versamax, Molecular Devices, Sunnyvale, Calif., USA).

R&D Systems human IL-17A = molecular target: T5, R&D Systems human IL-17A (human, UniProt Q16552 20-155); experiment: as above
T5 construct: Bought from R&D Systems, made in E. coli; also called R&D IL-17A; E. coli-derived human IL-17 (IL-17A)
T5 sequence: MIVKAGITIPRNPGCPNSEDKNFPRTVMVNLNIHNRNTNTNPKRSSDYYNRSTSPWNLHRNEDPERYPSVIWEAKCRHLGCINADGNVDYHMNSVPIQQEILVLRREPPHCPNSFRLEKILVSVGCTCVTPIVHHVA
Experimental: as §6, §7

native human IL-17A [15] = molecular target: T6, native human IL-17A (human, UniProt Q16552 24-155); experiment: cell-based or functional assay
T6 sequence: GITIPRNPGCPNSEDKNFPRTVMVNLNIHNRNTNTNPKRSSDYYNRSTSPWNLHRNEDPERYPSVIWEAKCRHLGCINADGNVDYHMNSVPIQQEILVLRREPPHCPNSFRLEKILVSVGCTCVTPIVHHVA

cynomolgus monkey IL-17A [16] = molecular target: T2, cynomolgus monkey IL-17A; experiment: cell-based or functional assay; remark: listed apart in the source
native human IL-17A [17] = molecular target: T6, native human IL-17A; experiment: cell-based or functional assay; remark: listed apart in the source
cynomolgus monkey IL-17A [18] = molecular target: T2, cynomolgus monkey IL-17A; experiment: cell-based or functional assay; remark: listed apart in the source
rhIL-17A [19] = molecular target: T1, rhIL-17A; experiment: cell-based or functional assay; remark: listed apart in the source
cynomolgus monkey IL-17A [20] = molecular target: T2, cynomolgus monkey IL-17A; experiment: cell-based or functional assay; remark: listed apart in the source

| Binder | IC50, inhibition of IL-6 production in NHDF cells, rhIL-17A (rhIL-17A [1]) [nM] | IC50, inhibition of IL-6 production in NHDF cells, cyno IL-17A (cynomolgus monkey IL-17A [2]) [nM] | IC50, foreskin fibroblast (HS68) assay, rhIL-17A-induced IL-6 (rhIL-17A [3]) [nM] | Kd (FLAG-huIL-17A [4]) [nM] | Kd (cynomolgus monkey IL-17A [5]) [nM] | Kd (mouse IL-17A [6]) [nM] | Area Under Peak (cynomolgus monkey IL-17A [7]) | Area Under Peak (mouse IL-17A [8]) | Area Under Peak (FLAG-huIL-17A [9]) | IC50, synoviocyte IL-6 production, rhIL-17A (30 ng/ml) (rhIL-17A [10]) [µg/mL] | IC50, synoviocyte IL-8 production, rhIL-17A (30 ng/ml) (rhIL-17A [11]) [µg/mL] | Kd (rhIL-17A [12]) [nM] | EC50 (rhIL-17A [13]) [nM] | EC50 (rhIL-17A [14]) [nM] | EC50 (R&D Systems human IL-17A) [nM] | IC50, synoviocyte IL-6 production, Native huIL-17A (10 ng/ml) (native human IL-17A [15]) [µg/mL] | IC50, synoviocyte IL-6 production, NHP IL-17A (30 ng/ml) (cynomolgus monkey IL-17A [16]) [µg/mL] | IC50, synoviocyte IL-8 production, Native huIL-17A (10 ng/ml) (native human IL-17A [17]) [µg/mL] | IC50, synoviocyte IL-8 production, NHP IL-17A (30 ng/ml) (cynomolgus monkey IL-17A [18]) [µg/mL] | IC50, Ba/F3 hIL-17Rc-mGCSFR proliferation assay, IL-17A at 100 pM (rhIL-17A [19]) | also measured |
| --- | --- | --- | --- | --- | --- | --- | --- | --- | --- | --- | --- | --- | --- | --- | --- | --- | --- | --- | --- | --- | --- |
| B1 | 1 | 0.3 | 0.126 | 0.0028 | 0.028 | 7 | 111000 | 143000 | 285000 |  |  |  |  |  |  |  |  |  |  |  |  |
| B2 |  |  |  |  |  |  |  |  |  | 0.08 | 0.042 | 0.0088 | 0.212 | 0.066 | 0.13 |  |  |  |  |  |  |
| B3 |  |  |  |  | 0.0163 |  |  |  |  | 0.07 | 0.038 | 0.0039 |  | 0.092 | 0.136 | 0.025 | 0.07 | 0.05 | 0.038 | 15 pM and 13 pM and 27 pM | IC50, Ba/F3 hIL-17Rc-mGCSFR proliferation assay, IL-17A at 276 pM (rhIL-17A [19]): 149 pM; IC50, Ba/F3 hIL-17Rc-mGCSFR proliferation assay, IL-17A at 100 pM (cynomolgus monkey IL-17A [20]): 17 pM |
| B4 |  |  |  |  |  |  |  |  |  | 0.07 | 0.04 | 0.01 |  | 0.08 | 0.118 |  |  |  |  | 11 pM |  |
| B5 |  |  |  |  |  |  |  |  | 346000 |  |  |  | 0.157 |  |  |  |  |  |  | 29 pM |  |
| B6 | 1 | 0.4 | 0.065 | 0.0017 | 0.0098 | 0.0103 | 136000 | 252000 | 477000 | 0.105 | 0.059 |  |  |  |  | 0.025 | 0.065 | 0.04 | 0.038 |  | IC50, Ba/F3 hIL-17Rc-mGCSFR proliferation assay, IL-17A at 276 pM (rhIL-17A [19]): 223 pM; IC50, Ba/F3 hIL-17Rc-mGCSFR proliferation assay, IL-17A at 100 pM (cynomolgus monkey IL-17A [20]): 19 pM |
